From paper PMC10499821

Target: Nsp5 (SARS-CoV-2) (UniProt P0DTD1)
Assay: fluorescence polarisation

Row | Binder | Kd [µM]
1 | GASSRLQASLSSSDV [SHROOM2_(403–417)] | 280
2 | TVKFHARTGMIESNR [DLG3_(577–592)] | 7
